Results taken from patent publication US20180155451A1 (published 2018).

T1: FcγRIIa R (FcγRIIa, allotype R: Arg at position 131) extracellular domain with C-terminal His tag (human, UniProt P12318 34-217)
T1 construct: extracellular domain; also called FcgRIIa R; 2aR; not shown: His tag at the C terminus
T1 sequence (looked up): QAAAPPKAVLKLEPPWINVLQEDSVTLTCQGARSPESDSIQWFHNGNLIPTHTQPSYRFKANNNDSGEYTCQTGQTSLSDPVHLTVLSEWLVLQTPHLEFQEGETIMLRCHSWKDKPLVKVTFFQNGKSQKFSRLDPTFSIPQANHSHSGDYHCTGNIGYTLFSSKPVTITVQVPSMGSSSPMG

T2: FcγRIIb extracellular domain with C-terminal His tag (human, UniProt P31994 43-217)
T2 construct: extracellular domain; also called FcgRIIb; 2b; not shown: His tag at the C terminus
T2 sequence (looked up): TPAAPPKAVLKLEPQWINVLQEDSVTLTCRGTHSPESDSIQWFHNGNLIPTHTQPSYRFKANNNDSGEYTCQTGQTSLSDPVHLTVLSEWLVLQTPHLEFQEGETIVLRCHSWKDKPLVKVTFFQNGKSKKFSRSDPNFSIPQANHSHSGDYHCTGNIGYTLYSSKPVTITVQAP

B1: GpH7-A5/GpH7-B3 variant K326_12R/GpL16-k0 (antibody, human IgG1, kappa)
heavy 1: not shown
heavy 2: not shown
light: DIVMTQSPLSLPVTPGEPASISCQASESLVHSNRNTYLHWYLQKPGQSPQLLIYKVSNRFSGVPDRFSGSGSGTDFTLKISRVEAEDVGVYYCSQNTHVPPTFGQGTKVEIERTVAAPSVFIFPPSDEQLKSGTASVVCLLNNFYPREAKVQWKVDNALQSGNSQESVTEQDSKDSTYSLSSTLTLSKADYEKHKVYACEVTHQGLSSPVTKSFNRGEC
notes: He Ab: alteration in the GpH7-B3 H chain only; also called He Ab
B2: GpH7-A5/GpH7-B3 variant S324_04F/GpL16-k0 (antibody, human IgG1, kappa)
heavy 1: not shown
heavy 2: not shown
light: DIVMTQSPLSLPVTPGEPASISCQASESLVHSNRNTYLHWYLQKPGQSPQLLIYKVSNRFSGVPDRFSGSGSGTDFTLKISRVEAEDVGVYYCSQNTHVPPTFGQGTKVEIERTVAAPSVFIFPPSDEQLKSGTASVVCLLNNFYPREAKVQWKVDNALQSGNSQESVTEQDSKDSTYSLSSTLTLSKADYEKHKVYACEVTHQGLSSPVTKSFNRGEC
notes: as for B1
B3: GpH7-A5/GpH7-B3 variant Q295_10E/GpL16-k0 (antibody, human IgG1, kappa)
heavy 1: not shown
heavy 2: not shown
light: DIVMTQSPLSLPVTPGEPASISCQASESLVHSNRNTYLHWYLQKPGQSPQLLIYKVSNRFSGVPDRFSGSGSGTDFTLKISRVEAEDVGVYYCSQNTHVPPTFGQGTKVEIERTVAAPSVFIFPPSDEQLKSGTASVVCLLNNFYPREAKVQWKVDNALQSGNSQESVTEQDSKDSTYSLSSTLTLSKADYEKHKVYACEVTHQGLSSPVTKSFNRGEC
notes: as for B1
B4: GpH7-A5/GpH7-B3 variant Q295_06M/GpL16-k0 (antibody, human IgG1, kappa)
heavy 1: not shown
heavy 2: not shown
light: DIVMTQSPLSLPVTPGEPASISCQASESLVHSNRNTYLHWYLQKPGQSPQLLIYKVSNRFSGVPDRFSGSGSGTDFTLKISRVEAEDVGVYYCSQNTHVPPTFGQGTKVEIERTVAAPSVFIFPPSDEQLKSGTASVVCLLNNFYPREAKVQWKVDNALQSGNSQESVTEQDSKDSTYSLSSTLTLSKADYEKHKVYACEVTHQGLSSPVTKSFNRGEC
notes: as for B1
B5: GpH7-A5/GpH7-B3 variant Y296_04F/GpL16-k0 (antibody, human IgG1, kappa)
heavy 1: not shown
heavy 2: not shown
light: DIVMTQSPLSLPVTPGEPASISCQASESLVHSNRNTYLHWYLQKPGQSPQLLIYKVSNRFSGVPDRFSGSGSGTDFTLKISRVEAEDVGVYYCSQNTHVPPTFGQGTKVEIERTVAAPSVFIFPPSDEQLKSGTASVVCLLNNFYPREAKVQWKVDNALQSGNSQESVTEQDSKDSTYSLSSTLTLSKADYEKHKVYACEVTHQGLSSPVTKSFNRGEC
notes: as for B1
B6: GpH7-A5/GpH7-B3 variant P331_09D/GpL16-k0 (antibody, human IgG1, kappa)
heavy 1: not shown
heavy 2: not shown
light: DIVMTQSPLSLPVTPGEPASISCQASESLVHSNRNTYLHWYLQKPGQSPQLLIYKVSNRFSGVPDRFSGSGSGTDFTLKISRVEAEDVGVYYCSQNTHVPPTFGQGTKVEIERTVAAPSVFIFPPSDEQLKSGTASVVCLLNNFYPREAKVQWKVDNALQSGNSQESVTEQDSKDSTYSLSSTLTLSKADYEKHKVYACEVTHQGLSSPVTKSFNRGEC
notes: as for B1
B7: GpH7-A5/GpH7-B3 variant P331_14T/GpL16-k0 (antibody, human IgG1, kappa)
heavy 1: not shown
heavy 2: not shown
light: DIVMTQSPLSLPVTPGEPASISCQASESLVHSNRNTYLHWYLQKPGQSPQLLIYKVSNRFSGVPDRFSGSGSGTDFTLKISRVEAEDVGVYYCSQNTHVPPTFGQGTKVEIERTVAAPSVFIFPPSDEQLKSGTASVVCLLNNFYPREAKVQWKVDNALQSGNSQESVTEQDSKDSTYSLSSTLTLSKADYEKHKVYACEVTHQGLSSPVTKSFNRGEC
notes: as for B1
B8: GpH7-A5/GpH7-B3 variant N325_10E/GpL16-k0 (antibody, human IgG1, kappa)
heavy 1: not shown
heavy 2: not shown
light: DIVMTQSPLSLPVTPGEPASISCQASESLVHSNRNTYLHWYLQKPGQSPQLLIYKVSNRFSGVPDRFSGSGSGTDFTLKISRVEAEDVGVYYCSQNTHVPPTFGQGTKVEIERTVAAPSVFIFPPSDEQLKSGTASVVCLLNNFYPREAKVQWKVDNALQSGNSQESVTEQDSKDSTYSLSSTLTLSKADYEKHKVYACEVTHQGLSSPVTKSFNRGEC
notes: as for B1
B9: GpH7-A5/GpH7-B3 variant Y296_06M/GpL16-k0 (antibody, human IgG1, kappa)
heavy 1: not shown
heavy 2: not shown
light: DIVMTQSPLSLPVTPGEPASISCQASESLVHSNRNTYLHWYLQKPGQSPQLLIYKVSNRFSGVPDRFSGSGSGTDFTLKISRVEAEDVGVYYCSQNTHVPPTFGQGTKVEIERTVAAPSVFIFPPSDEQLKSGTASVVCLLNNFYPREAKVQWKVDNALQSGNSQESVTEQDSKDSTYSLSSTLTLSKADYEKHKVYACEVTHQGLSSPVTKSFNRGEC
notes: as for B1
B10: GpH7-A5/GpH7-B3 variant P331_08L/GpL16-k0 (antibody, human IgG1, kappa)
heavy 1: not shown
heavy 2: not shown
light: DIVMTQSPLSLPVTPGEPASISCQASESLVHSNRNTYLHWYLQKPGQSPQLLIYKVSNRFSGVPDRFSGSGSGTDFTLKISRVEAEDVGVYYCSQNTHVPPTFGQGTKVEIERTVAAPSVFIFPPSDEQLKSGTASVVCLLNNFYPREAKVQWKVDNALQSGNSQESVTEQDSKDSTYSLSSTLTLSKADYEKHKVYACEVTHQGLSSPVTKSFNRGEC
notes: as for B1
B11: GpH7-A5/GpH7-B3 variant P331_13S/GpL16-k0 (antibody, human IgG1, kappa)
heavy 1: not shown
heavy 2: not shown
light: DIVMTQSPLSLPVTPGEPASISCQASESLVHSNRNTYLHWYLQKPGQSPQLLIYKVSNRFSGVPDRFSGSGSGTDFTLKISRVEAEDVGVYYCSQNTHVPPTFGQGTKVEIERTVAAPSVFIFPPSDEQLKSGTASVVCLLNNFYPREAKVQWKVDNALQSGNSQESVTEQDSKDSTYSLSSTLTLSKADYEKHKVYACEVTHQGLSSPVTKSFNRGEC
notes: as for B1
B12: GpH7-A5/GpH7-B3 variant P331_18N/GpL16-k0 (antibody, human IgG1, kappa)
heavy 1: not shown
heavy 2: not shown
light: DIVMTQSPLSLPVTPGEPASISCQASESLVHSNRNTYLHWYLQKPGQSPQLLIYKVSNRFSGVPDRFSGSGSGTDFTLKISRVEAEDVGVYYCSQNTHVPPTFGQGTKVEIERTVAAPSVFIFPPSDEQLKSGTASVVCLLNNFYPREAKVQWKVDNALQSGNSQESVTEQDSKDSTYSLSSTLTLSKADYEKHKVYACEVTHQGLSSPVTKSFNRGEC
notes: as for B1
B13: GpH7-A5/GpH7-B3 variant P331_02A/GpL16-k0 (antibody, human IgG1, kappa)
heavy 1: not shown
heavy 2: not shown
light: DIVMTQSPLSLPVTPGEPASISCQASESLVHSNRNTYLHWYLQKPGQSPQLLIYKVSNRFSGVPDRFSGSGSGTDFTLKISRVEAEDVGVYYCSQNTHVPPTFGQGTKVEIERTVAAPSVFIFPPSDEQLKSGTASVVCLLNNFYPREAKVQWKVDNALQSGNSQESVTEQDSKDSTYSLSSTLTLSKADYEKHKVYACEVTHQGLSSPVTKSFNRGEC
notes: as for B1
B14: GpH7-A5/GpH7-B3 variant S239_14T/GpL16-k0 (antibody, human IgG1, kappa)
heavy 1: not shown
heavy 2: not shown
light: DIVMTQSPLSLPVTPGEPASISCQASESLVHSNRNTYLHWYLQKPGQSPQLLIYKVSNRFSGVPDRFSGSGSGTDFTLKISRVEAEDVGVYYCSQNTHVPPTFGQGTKVEIERTVAAPSVFIFPPSDEQLKSGTASVVCLLNNFYPREAKVQWKVDNALQSGNSQESVTEQDSKDSTYSLSSTLTLSKADYEKHKVYACEVTHQGLSSPVTKSFNRGEC
notes: as for B1
B15: GpH7-A5/GpH7-B3 variant L234_04F/GpL16-k0 (antibody, human IgG1, kappa)
heavy 1: not shown
heavy 2: not shown
light: DIVMTQSPLSLPVTPGEPASISCQASESLVHSNRNTYLHWYLQKPGQSPQLLIYKVSNRFSGVPDRFSGSGSGTDFTLKISRVEAEDVGVYYCSQNTHVPPTFGQGTKVEIERTVAAPSVFIFPPSDEQLKSGTASVVCLLNNFYPREAKVQWKVDNALQSGNSQESVTEQDSKDSTYSLSSTLTLSKADYEKHKVYACEVTHQGLSSPVTKSFNRGEC
notes: as for B1
B16: GpH7-A5/GpH7-B3 variant N325_15Y/GpL16-k0 (antibody, human IgG1, kappa)
heavy 1: not shown
heavy 2: not shown
light: DIVMTQSPLSLPVTPGEPASISCQASESLVHSNRNTYLHWYLQKPGQSPQLLIYKVSNRFSGVPDRFSGSGSGTDFTLKISRVEAEDVGVYYCSQNTHVPPTFGQGTKVEIERTVAAPSVFIFPPSDEQLKSGTASVVCLLNNFYPREAKVQWKVDNALQSGNSQESVTEQDSKDSTYSLSSTLTLSKADYEKHKVYACEVTHQGLSSPVTKSFNRGEC
notes: as for B1
B17: GpH7-A5/GpH7-B3 variant N325_14T/GpL16-k0 (antibody, human IgG1, kappa)
heavy 1: not shown
heavy 2: not shown
light: DIVMTQSPLSLPVTPGEPASISCQASESLVHSNRNTYLHWYLQKPGQSPQLLIYKVSNRFSGVPDRFSGSGSGTDFTLKISRVEAEDVGVYYCSQNTHVPPTFGQGTKVEIERTVAAPSVFIFPPSDEQLKSGTASVVCLLNNFYPREAKVQWKVDNALQSGNSQESVTEQDSKDSTYSLSSTLTLSKADYEKHKVYACEVTHQGLSSPVTKSFNRGEC
notes: as for B1

Experiments:
[1] = biological target: T1, FcγRIIa R (FcγRIIa, allotype R: Arg at …); test: SPR Biacore, antibody captured, FcgR analyte; vs HeCon Ab GpH7-A5/GpH7-B3/GpL16-k0 = 100
Procedure: (§1) The heterodimerized antibodies He Abs in which one of the H chains was introduced with an alteration were assayed for their binding activities to each activating FcγR and inhibitory FcγR according to the method described in Example 4. […] The activating FcγRs in FIGS. 26, 27, 28, and 29 are FcγRIa, FcγRIIa (R), FcγRIIa (H), and FcγRIIIa, respectively.
(§2) Analysis of interaction between objective antibody and the FcγR was carried out using Biacore T100 (GE Healthcare). HBS-EP+ (GE Healthcare) was used as the running buffer, and the measurement temperature was set to 25° C. Chips produced by immobilizing the antigen peptide by the amine coupling method to a Series S Sencor Chip CM5 (GE Healthcare), or alternatively, chips produced by allowing preliminarily biotinylated antigen peptides to interact with and immobilize onto a Series S Sensor Chip SA (certified) (GE Healthcare) were used. Antibodies of interest were captured onto an antigen peptide-immobilized chip, and allowed to interact to each FcγR diluted with running buffer. To regenerate and repeatedly use the chip, the antibodies captured on the chip were washed off by reacting 10 mM glycine-HCl, pH 1.5.

[2] = biological target: T2, FcγRIIb extracellular domain with …; test: as above
Procedure: as §1, §2

Binder	He/Con_2aR [1]	He/Con_2b [2]
B1	103 control = 100	89.2 control = 100
B2	104 control = 100	89.1 control = 100
B3	102 control = 100	94.8 control = 100
B4	102 control = 100	90.4 control = 100
B5	109 control = 100	99.2 control = 100
B6	102 control = 100	94.3 control = 100
B7	104 control = 100	99.8 control = 100
B8	105 control = 100	95.9 control = 100
B9	101 control = 100	87.8 control = 100
B10	102 control = 100	95.7 control = 100
B11	105 control = 100	96.8 control = 100
B12	105 control = 100	99.2 control = 100
B13	106 control = 100	99.5 control = 100
B14	103 control = 100	97.3 control = 100
B15	104 control = 100	99.8 control = 100
B16	101 control = 100	99.5 control = 100
B17	105 control = 100	91.6 control = 100
